From publication PMC7300195 (Frontiers in Immunology, 2020)

Experiments:
Test in all cases: BLI
Conditions in all cases: both partners purified
[1] = biological target: hexameric NiV G: two G ectodomain headgroups linked by a foldon trimerization domain via short glycine linkers (Nipah virus, Malaysia (AAK50545.1), UniProt Q9IH62)
[2] = biological target: NiV G trimer: NiV G head domain residues 172-602 coupled to an N-terminal foldon domain (Nipah virus, Malaysia (AAK50545.1), UniProt Q9IH62)
[3] = biological target: T1, NiV G ferritin 24-mer nanoparticle: NiV G ectodomain residues 172-602 linked to the C-terminus of ferritin … (Nipah virus, Malaysia (AAK50545.1), UniProt Q9IH62)
T1 construct: copies: 24

Measured: binding result

B1: m102.4 monoclonal antibody (HeV G-specific antibody), human IgG1/kappa (antibody, V domains shown)
VH: EVQVIQSGADVKKPGSSVKVSCKSSGGTFSKYAINWVRQAPGQGLEWMGGIIPILGIANYAQKFQGRVTITTDESTSTAYMELSSLRSEDTAVYYCARGWGREQLAPHPSQYYYYYYGMDVWGQGTTVTVSS
VL: EIVMTQSPGTLSLAPGERATLSCWASQSVRNNYLAWYQQKPGQAPRLVIYNGSTRATGIPDRFSGSGSGTDFTLTISRLDPEDFAVYYCQQYGNSRRVTFGGGTKVEIK
binds: all assays above
